Source: patent US6780971B2, “Compositions for inhibiting the aggregation pathway of α-synuclein” (Panacea Pharmaceuticals, Inc., priority 2000, dated 2004)

Assays:
α-synuclein [1] = molecular target: T1, α-synuclein (Homo sapiens, UniProt P37840); test: Tyrosine fluorescence assay of metal binding to α-synuclein; settings: wildtype α-synuclein
T1 construct: His-6 (cleaved yes); made in house; host or cells: bacteria (IPTG-induced; Pro-Ex His 6 vector)
Protocol: (§1) Because iron binds to other proteins that form aggregates and iron is known to accumulate in Parkinson's disease, iron might bind directly to α-synuclein. To confirm this hypothesis, the interaction of iron with α-synuclein was tested using tyrosine fluorescence as an indicator of iron binding. […] Fluorescence of tyrosine has been used to monitor binding of metals to β-amyloid [Garzon-Rodriguez W. et al., Bioorg. Med. Chem. Let., 9:2243-2248 (1999), which is hereby incorporated by reference]. A similar approach was taken to analyze binding of iron to α-synuclein. Tyrosine has a fluorescence emission spectrum that has a peak emission of 310 nm when excited at 280 nm, respectively (FIG. 2A). It was observed that binding of iron reduced the fluorescence of the tyrosines in α-synuclein. […] The Hill coefficient was 1.0 (R^2=1.0, P<0.0001), indicating one binding site for iron with no cooperativity (FIGS. 2A & B). α-Synuclein was also tested for binding to other metals, including CuCl2, ZnCl2 and MgCl2. Because the C-terminus of α-synuclein has a region with 7 glutamates and 4 aspartates, which together could chelate iron, we created a deletion construct lacking the last 27 amino acids on α-synuclein and analyzed binding of this construct.
To monitor the binding profiles of Fe(II) and Mg(II) to α-synuclein in vitro we used changes of tyrosine fluorescence. Tyrosine fluorescence is used as an indicator of changes in protein conformation or binding of metals. Excitation of tyrosine at 280 nm elicits fluorescence that peaks at 310 nm for monomeric tyrosine, and at 350-400 nm for tyrosinate or dimeric tyrosine. The fluorescence spectrum of α-synuclein yielded fluorescence peaks at 310 and 400 nm. The peak at 400 nm cannot be explained by the presence of dimeric tyrosine, due to dimerization of α-synuclein, because dimerization of α-synuclein decreases the fluorescence at 400 nm, and tends to eliminate the peak at 400 nm.

α-synuclein ΔC1-113 = molecular target: T2, α-synuclein ΔC1-113 (Homo sapiens, UniProt P37840); test: Tyrosine fluorescence assay of iron binding to C-terminal deletion construct
T2 construct: made in house
Protocol: as §1

A53T α-synuclein = molecular target: T3, A53T α-synuclein (Homo sapiens, UniProt P37840, A53T); test: Tyrosine fluorescence assay of metal binding to A53T α-synuclein
T3 construct: His-6 (cleaved yes); made in house; host or cells: bacteria (IPTG-induced; Pro-Ex His 6 vector)
Text: We also examined how the A53T mutation in human α-synuclein affected binding of iron and magnesium. […] Previous studies have shown that A53T mutation changes the conformation of α-synuclein by increasing its helical content (Polymeropoulos et al., Science, 276:2045-7(1997)). These conformational changes might also reduce binding of magnesium to α-synuclein.

[2] = system: BE-M17 cells over-expressing α-synuclein; test: Iron-mediated toxicity in BE-M17 cell lines, MTT assay; assay type: cell-based; settings: for reduction of LD50 by α-synuclein over-expression: 48 hrs
Protocol: To determine if the conditions that produce α-synuclein aggregation also produce toxicity, the vulnerability of each cell line to iron and/or hydrogen peroxide-mediated toxicity was tested. Each cell line (untransfected, wild type, A53T and A30P a-synuclein) was treated with varying doses of FeCl2, H2O2 or FeCl2+H2O2 and the amount of toxicity was determined by MTT assay. […] Over-expression of A30P or wild type α-synuclein constructs reduced the LD50 values by ˜50%, although the amount of toxicity seen in A30P-expressing cells in response to low levels of iron was generally greater than toxicity seen with wildtype α-synuclein (FIG. 1A). To confirm that over-expression of α-synuclein increased the vulnerability of the neuroblastoma cells to iron, iron-induced toxicity was tested using a LDH assay (FIG. 1B). The LDH assay confirmed that over-expression of the α-synuclein constructs increases iron-induced toxicity (FIG. 1B).

[3] = system: BE-M17 neuroblastoma cells; test: Iron-induced α-synuclein aggregation in BE-M17 cell lines (fractionation, immunoblot); assay type: cell-based, human; settings: for formation of large α-synuclein aggregates migrating in the stacking gel: cells over-expressing A30P or wild type α-synuclein, 48 hrs, 10 mM FeCl2 and/or 5-500 μM dopamine
Protocol: Immunoblotting: Cells were harvested with SDS lysis solution (2% SDS, 10 mM Tris, pH 7.4, 2 mM β-glycerol phosphate, 1 μM AEBSF). The amount of protein was determined using the BCA assay (Pierce), […] per lane was run on 14% SDS polyacrylamide gels and transferred to nitrocellulose (200 mAmp, 12 hrs). The nitrocellulose was then incubated 1 hr in 5% milk/PBS, washed, incubated overnight in 1° antibody, washed, then incubated 3 hrs in peroxidase coupled 2° antibody and developed with chemiluminescent reagent (NEN).
Cell fractionation: For cell fractionation the cells were harvested in buffer containing 20 mM Tris, pH 7.4, 2 mM EDTA, 0.25 M sucrose, and 20 μg/mL protease inhibitor cocktail (Sigma). The cell lysate was sonicated and centrifuged at 100,000×g at 4° C. for 1 hr.
To test whether A53T and A30P mutations in α-synuclein increase the tendency of α-synuclein to aggregate in neurons, α-synuclein aggregation was determined in human BE-M17 neuroblastoma cells that were stably transfected with wild type, A53T or A30P α-synuclein. Each cell line was treated for 48 hours with freshly prepared FeCl2 (1 or 10 mM), then harvested, homogenized and fractionated into membrane and cytoplasmic components. The membrane (5 μg/lane) and cytoplasmic (20 μg/lane) components were immunoblotted with monoclonal anti-α-synuclein antibody.
To determine the effect of increasing the duration of exposure to iron on aggregation of α-synuclein at lower doses of iron, BE-M17 cells which are over-expressing A53T or wildtype α-synuclein were exposed to FeCl2 for 4 days. Under these conditions, doses as low as 0.3 μM FeCl2 produced detectable aggregation of α-synuclein in cells expressing A53T α-synuclein.
Neurol. 57:793-796 (2000)]. If so, adding free radical generators, such as hydrogen peroxide or dopamine, along with the iron might increase the amount of α-synuclein aggregation. To further determine that oxidation enhanced iron-induced aggregation of α-synuclein, BE-M17 cells over-expressing A30P or wildtype α-synuclein were treated for 48 hrs with 10 mM FeCl2 plus varying concentrations of dopamine (0.5, 50, and 500 μM).

[4] = molecular target: T4, C-terminal (approx. amino acids 113-140) of α-synuclein (Homo sapiens, UniProt P37840); test: Phage display selection for binding to C-terminal portion of α-synuclein; settings: for binding to the C-terminal portion of α-synuclein: phage display
T4 construct: The peptides were selected using the α-synuclein 121-131 and 61-87 peptides as the bait
Text: (§2) Such peptides can be found, for instance, by using phage display to select for those phage expressing a peptide on their surface that binds to α-synuclein, and determining what the peptide is. The inhibitory effect of that peptide, or any peptide for that matter, can also be tested to determine its usefulness as an agent for treating a Lewy body disease or synucleinopathy by using assays such as those disclosed herein or as disclosed in U.S. Pat. No. 6,184,351, which is incorporated herein by reference. Such peptides have been selected for their ability to bind to the C-terminal (approx. amino acids 113-140), and the NAC portion (approx. amino acids 61-87) of α-synuclein, because this region is thought to be involved with the aggregation process. Several peptides that bind to the C-terminal portion are as follows (all peptides are given in […] order): (1) WRQTRKD (SEQ ID NO: 1); (2) HYAKNPI (SEQ ID NO: 2); (3) ATINKSL (SEQ ID NO: 3); (4) RRRGMAI (SEQ ID NO: 4); (5) THRLPSR (SEQ ID NO: 5); and (6) TKHGPRK (SEQ ID NO: 6). Several peptides that bind to the NAC portion are: (1) SLKRLPK (SEQ ID NO: 7); (2) RLRGRNQ (SEQ ID NO: 8); (3) WPFHHHR (SEQ ID NO: 9); (4) HLYHHKT (SEQ ID NO: 10); (5) THIHHPS (SEQ ID NO: 11); and (6) MMMMMRL (SEQ ID NO: 12). […] Most preferred is the peptide SLKRLPK (SEQ ID NO: 7).
(§3) Phage display: Incubating a library of phage that is all identical except for a sequence of 7 amino acids that are presented on the coat and randomly differ from phage to phage. Phage which express a sequence that specifically binds to α-synuclein are then isolated, cloned, and the DNA sequenced to determined the amino acid sequence. The 7 amino acid peptide is then synthesized and tested directly.
(§4) Phage display (phage display kit was from New England Biolabs (Beverly, Mass.)) was used to specifically select for peptides that can inhibit iron binding. […] The peptides were selected using the α-synuclein 121-131 and 61-87 peptides as the bait. One such peptide has the sequence SLKRLPK (SEQ ID NO: 7).

[5] = molecular target: T5, NAC portion (approx. amino acids 61-87) of α-synuclein (Homo sapiens, UniProt P37840); test: Phage display selection for binding to NAC portion of α-synuclein; settings: for binding to the NAC portion of α-synuclein: phage display; for relative binding properties: NAC portion binders
T5 construct: The peptides were selected using the α-synuclein 121-131 and 61-87 peptides as the bait
Text: as §2, §3, §4

α-synuclein [6] = molecular target: T1, α-synuclein; test: Phage ELISA binding to α-synuclein absorbed to plastic well
Protocol: Bound phage was detected by adding peroxidase coupled anti-phage antibody, incubating 1 hr, washing 5 times and detecting signal using the peroxidase substrate ABTS. Bound phage produces a dark green signal that is measured as optical density with a spectrophotometer. Using these conditions, the phage containing the SLKRLPK (SEQ ID NO: 7) peptide gave OD's of 0.882, 0.844, and 0.480 at dilutions of 1:10, 1:100, and 1:1000, respectively.

Molecule: [Cl][Fe][Cl] [FeCl2]
- Hill coefficient of iron binding curve (α-synuclein [1]): 1.0
- IC50 (α-synuclein [1]; excitation 280 nm, sigmoidal fit, read-out: IC50 of quenching of α-synuclein tyrosine fluorescence (iron binding)): 173 µM
- IC50 (α-synuclein ΔC1-113; construct lacking the last 27 amino acids): 726 µM
- reduction in iron binding versus wildtype (α-synuclein ΔC1-113; ΔC1-113 versus wildtype α-synuclein): > 4 fold
- effect of A53T mutation on binding to α-synuclein (A53T α-synuclein): did not change the apparent affinity
- increase in vulnerability to induced toxicity in cells over-expressing α-synuclein [2]: ≤ 4 fold
- reduction of LD50 by α-synuclein over-expression ([2]; A30P or wild type α-synuclein over-expressing cells versus untransfected): ~50%
- reduction of LD50 by α-synuclein over-expression ([2]; A53T α-synuclein over-expressing cells versus untransfected): over 75%
- α-synuclein aggregate formation ([3]; A53T-expressing cell line, 1 or 10 mM, 48 hours, membrane fraction): induced dose-dependent formation of heterogeneous high molecular weight α-synuclein aggregates
- lowest dose producing detectable aggregation of α-synuclein ([3]; cells expressing A53T α-synuclein, 4 days): 0.3 µM
- formation of large α-synuclein aggregates migrating in the stacking gel [3]: did not induce any aggregation
- α-synuclein aggregate formation ([3]; untransfected, wildtype and A30P cell lines, 48 hr): did not induce α-synuclein aggregates

Molecule: NCCc1ccc(O)c(O)c1 [dopamine]
- formation of large α-synuclein aggregates migrating in the stacking gel [3]: did not induce formation of large α-synuclein aggregates

Molecule: ATINKSL (listed as Homo sapiens)
- binding to the C-terminal portion of α-synuclein [4]: bind

Molecule: HLYHHKT (listed as Homo sapiens)
- binding to the NAC portion of α-synuclein [5]: bind

Molecule: HYAKNPI (listed as Homo sapiens)
- binding to the C-terminal portion of α-synuclein [4]: bind

Molecule: MMMMMRL (listed as Homo sapiens)
- relative binding properties [5]: stronger binding properties
- binding to the NAC portion of α-synuclein [5]: bind

Molecule: RLRGRNQ (listed as Homo sapiens)
- binding to the NAC portion of α-synuclein [5]: bind

Molecule: RRRGMAI (listed as Homo sapiens)
- binding to the C-terminal portion of α-synuclein [4]: bind

Molecule: SLKRLPK (listed as Homo sapiens)
- OD of bound phage (α-synuclein [6]; phage dilution 1:10): 0.882
- OD of bound phage (α-synuclein [6]; phage dilution 1:100): 0.844
- OD of bound phage (α-synuclein [6]; phage dilution 1:1000): 0.480
- binding of phage to α-synuclein by ELISA (α-synuclein [6]; phage expressing the sequence): particularly strong binding
- relative binding properties [5]: stronger binding properties
- binding to the NAC portion of α-synuclein [5]: bind

Molecule: THIHHPS (listed as Homo sapiens)
- relative binding properties [5]: stronger binding properties
- binding to the NAC portion of α-synuclein [5]: bind

Molecule: THRLPSR (listed as Homo sapiens)
- relative binding properties ([4]; C-terminal portion binder): stronger binding properties
- binding to the C-terminal portion of α-synuclein [4]: bind

Molecule: TKHGPRK (listed as Homo sapiens)
- binding to the C-terminal portion of α-synuclein [4]: bind

Molecule: WPFHHHR (listed as Homo sapiens)
- binding to the NAC portion of α-synuclein [5]: bind

Molecule: WRQTRKD (listed as Homo sapiens)
- binding to the C-terminal portion of α-synuclein [4]: bind
